This note sets out measurements from patent US20200095636A1, “ANTIDOTE-MEDIATED REVERSAL OF EXTRACELLULAR APTAMER STAINING” (Duke University, published 2020).

Series [1] deals with epidermal growth factor receptor (EGFR) on A431 epidermoid carcinoma cells (human) (UniProt P00533). The series is described as follows: flow cytometry of stained A431 cells immediately before and after FACS.
Series [2] has as its target EGFR (epidermal growth factor receptor) (Homo sapiens, UniProt P00533 P00533:25-1210). As to the kind of experiment: flow; apparent; A431 cells, on ice 30 min, media + 1% BSA + salmon sperm DNA; binding blocked or reversed at 37 C by antidotes A9 and mA9 but not scrambled sA9. The note with it: tags: endogenous on A431 epidermoid carcinoma cells (ATCC); label: 5' AF488. How it is done:
All aptamers were folded in PBS+/+ by denaturation at 65° C. for 5 min followed by passive cooling to ambient temperature for 3 min. In general, 500 nM aptamer solutions were used for staining, but this concentration varied as noted in some assays. For aptamer-SA staining solutions, 2:1 aptamer conjugates were prepared with 1 μM aptamer and 500 nM AF488-SA or AF647-SA. All staining solutions were prepared in Media+ and contained 1 mg/mL salmon sperm DNA to mitigate non-specific binding. All antibodies were used as 1:50 dilutions in Media+ with 1 mg/mL salmon sperm DNA. Both FITC-conjugated ICR10 (Abcam) and PE-conjugated D1D4J (Cell Signaling Technologies) monoclonal EGFR antibodies were used for staining.
A431 cells were stained with various concentrations (25, 50, 125, 250 or 500 nM) of E07 only or E07-SA conjugate mixtures prepared by reacting 1:1, 2:1 or 3:1 biotinylated E07 with tetrameric streptavidin. Stained cells were washed, analyzed by flow cytometry and their fluorescence corresponding to the amount of bound E07 or E07-SA was plotted to determine apparent binding affinities (dissociation constants; KD) and cell surface saturation (total number of receptors; Bmax). Conjugate mixtures prepared from higher E07: SA ratios had higher apparent affinities, but lower apparent saturation.

On to “FITC-conjugated ICR10 (Abcam) monoclonal EGFR antibody”, for which the losses during sorting (percent of stain fluorescence lost) in series [1] worked out at 11%.

“PE-conjugated D1D4J (Cell Signaling Technologies) monoclonal EGFR antibody” registered a losses during sorting (percent of stain fluorescence lost) in series [1] of 11%.

On to GGACGGAUUUAAUCGCCGUAGAAAGCAUGUCAAAGCCGGAACCGUCC (ssRNA, 2'-F C/U, 2'-OH purines, 3' idT) [E07], for which the Kd in series [2] came out at 62.7 nM.
